Assay results reported in US20030207791A1, “Materials and methods relating to the treatment of leukaemias” (priority 2000, published 2003).

B1: PML-RAR: leukaemia-associated chimeric transcription factor, fusion of PML and RAR (protein)
chain: MEPAPARSPRPQQDPARPQEPTMPPPETPSEGRQPSPSPSPTERAPASEEEFQFLRCQQCQAEAKCPKLLPCLHTLCSGCLEASGMQCPICQAPWPLGADTPALDNVFFESLQRRLSVYRQIVDAQAVCTRCKESADFWCFECEQLLCAKCFEAHQWFLKHEARPLAELRNQSVREFLDGTRKTNNIFCSNPNHRTPTLTSIYCRGCSKPLCCSCALLDSSHSELKCDISAEIQQRQEELDAMTQALQEQDSAFGAVHAQMHAAVGQLGRARAETEELIRERVRQVVAHVRAQERELLEAVDARYQRDYEEMASRLGRLDAVLQRIRTGSALVQRMKCYASDQEVLDMHGFLRQALCRLRQEEPQSLQAAVRTDGFDEFKVRLQDLSSCITQGKDAAVSKKASPEAASTPRDPIDVDLPEEAERVKAQVQALGLAEAQPMAVVQSVPGAHPVPVYAFSIKGPSYGEDVSNTTTAQKRKCSQTQCPRKVIKMESEEGKEARLARSSPEQPRPSTSKAVSPPHLDGPPSPRSPVIGSEVFLPNSNHVASGAGEAIETQSSSSEEIVPSPPSPPPLPRIYKPCFVCQDKSSGYHYGVSACEGCKGFFRRSIQKNMVYTCHRDKNCIINKVTRNRCQYCRLQKCFEVGMSKESVRNDRNKKKKEVPKPECSESYTLTPEVGELIEKVRKAHQETFPALCQLGKYTTNNSSEQRVSLDIDLWDKFSELSTKCIIKTVEFAKQLPGFTTLTIADQITLLKAACLDILILRICTRYTPEQDTMTFSDGLTLNRTQMHNAGFGPLTDLVFAFANQLLPLEMDDAETGLLSAICLICGDRQDLEQPDRVDMLQEPLLEALKVYVRKRRPSRPHMFPKMLMKITDLRSISAKGAERVITLKMEIPGSMPPLIQEMLENSEGLDTLSGQPGGGGRDGGGLAPPPGSCSPSLSPSSNRSSPATHSP
B2: p53-RAR: RAR fused C-terminally to the tetramerization domain present in p53 (protein)
chain: GEYFTLQIRGRERFEMFRELNEALELKDAQAGMASNSSSCPTPGGGHLNGYPVPPYAFFFPPMLGGLSPPGALTTLQHQLPVSGYSTPSPATIETQSSSSEEIVPSPPSPPPLPRIYKPCFVCQDKSSGYHYGVSACEGCKGFFRRSIQKNMVYTCHRDKNCIINKVTRNRCQYCRLQKCFEVGMSKESVRNDRNKKKKEVPKPECSESYTLTPEVGELIEKVRKAHQETFPALCQLGKYTTNNSSEQRVSLDIDLWDKFSELSTKCIIKTVEFAKQLPGFTTLTIADQITLLKAACLDILILRICTRYTPEQDTMTFSDGLTLNRTQMHNAGFGPLTDLVFAFANQLLPLEMDDAETGLLSAICLICGDRQDLEQPDRVDMLQEPLLEALKVYVRKRRPSRPHMFPKMLMKITDLRSISAKGAERVITLKMEIPGSMPPLIQEMLENSEGLDTLSGQPGGGGRDGGGLAPPPGSCSPSLSPSSNRSSPATHSP

Columns and labels:
[1] = test system: U937 cells expressing PML-RAR under the control of an inducible promoter; assay: Differentiation (CD14) of U937 cells with inducible PML-RAR treated with vitamin D and TGFβ; type: cell-based; details: PML-RAR induced, control infection (GFP alone), vitamin D and TGFβ
Description: The cells were either uninduced (ctr column), or induced to express PML-RAR (PML-RAR column). Cells were transduced with retroviral vectors encoding the coiled coil of PML (RBCC) and GFP as a marker, or with retroviral vectors encoding GFP alone as a control (control). […] In cells expressing the coiled coil of PML (gated in the cytofluorimetric analysis based on the positivity for the GFP marker), PML-RAR was unable to block efficiently differentiation (from 90% to 70%). Levels of expression of PML-RAR were unchanged by expressing the coiled coil region of PML.
RAR oligomerization through the coiled coil region of PML is required for its leukemogenic activity, and deletion of the PML coiled coil is sufficient to lead to loss of oncogenic potential (Minucci et al., 2000). Small molecule compounds able to disrupt PML-RAR oligomers would therefore be able to revert the leukemic phenotype.

[2] = test system: RARE-G5-TATA reporter (GAL4-VP16 driven transcription); assay: Transcriptional repression of GAL4-VP16 activation, RARE-G5-TATA reporter, transfected HeLa cells; type: cell-based
Description: FIG. 2. Role of the coiled coil of PML in the altered transcriptional properties of PML-RAR (A): Transcriptional repression by RAR and fusion proteins. Hela cells were co-transfected with the RARE-G5-TATA reporter in the absence (C) or presence of increasing amounts (50, 100, 250, 1000 ng) of the indicated expression vectors and then harvested 48 hours after transfection. Levels of expression of RAR and fusion proteins after transfection are shown in (C). (B) RARE and NCoR dependent transcriptional repression by RAR and fusion proteins. Hela cells were co-transfected with the RARE-G5-TATA or the G5-TATA, reporters and 1 μg of control expression vector (C), RAR (R), PML-RAR (P/R) and their respective AHT derivatives, as indicated. (D) RA sensitivity of RAR and fusion proteins. Cells were co-transfected with 500 ng of the indicated expression vectors. 24 hours after transfection, RA was added at the following concentrations: 1, 10, 100 nM, 1, 10 μM, and cells were harvested after additional 24 hours.
To test this hypothesis, the inventors devised an artificial, reporter system to measure transcriptional repression by RAR and chimeric proteins. The RARE-G5-TATA reporter construct has five GAL4 response elements fused to a minimal promoter region: upstream of the GAL4 sites, a RA responsive element (RARE) allows binding of RAR (or fusion proteins). […] RAR over-expression led to decrease of GAL4-VP16 activation, with 30-40% repression observed with the maximal amount of co-transfected RAR expression vector (1 μg, FIG. 2A), while it exerted no effect on the GAL4-VP16-mediated activation of a cognate promoter lacking the RARE (FIG. 2B). A RAR construct carrying the AHT mutation, which abrogates NCoR binding (Horlein et al., 1995), was unable to prevent activation of the RARE-G5-TATA promoter by GAL4-VP16 (FIG. 2B).
Next, the inventors tested the transcriptional regulatory functions of PML-RAR (or derivatives). […] At the maximal concentration tested (1 μg), the inventors observed 80-90% repression with PML-RAR and 30-40% with RAR (FIG. 2A).
Transient transfection of HeLa, NIH 3T3, SAOS and C33A cells was performed by calcium phosphate as described (Lillie and Green, 1989; Minucci et al., 1994). p53-/- MEFs were transiently transfected by lipofection as described (Pearson et al., 2000). Light units were normalized to expression of a co-transfected β-galactosidase expression plasmid. Results are presented as the mean+standard deviations of at least three independent experiments.

Molecule	differentiated, CD14+ cells [1]	repression of GAL4-VP16 activation ([2]; maximal amount of expression vector, 1 μg)	capacity to repress GAL4-VP16 driven transcription [2]
B1	about 30%	80-90%	–
B2	–	–	as strongly as PML-RAR
